The values below come from doi:10.1101/2023.04.03.535445 (bioRxiv, 2023).

The target in data set [1] is truncated Pex5 containing a single Wxxx(F/Y) motif (residues 314-666; Pex5TPR) (Trypanosoma cruzi) (UniProt Q4DPQ9). Nature of the data set: ITC.
Data set [2] addresses Pex5 Y358A mutant (Pex5TPR) (Trypanosoma cruzi) (UniProt Q4DPQ9). The experiment in a line: ITC. In general terms: In ITC the heat of successive injections is recorded.
In data set [3] the target is Pex5TPR with a GSGS-spacer between the TPR domain and the Wxxx(F/Y) motif (Trypanosoma cruzi) (UniProt Q4DPQ9). Nature of the data set: ITC.
Data set [4] concerns the target MDH GSGS-linker mutant (GSGS introduced between PTS1 and MDH) (Trypanosoma cruzi). Nature of the data set: ITC.
Data set [5] addresses MDH with the 62-70 loop replaced with GS-linker (Trypanosoma cruzi). Nature of the data set: ITC.
In data set [6] the target is glycosomal malate dehydrogenase (MDH, residues 1-323) of Trypanosoma cruzi (Trypanosoma cruzi) (UniProt Q4DRD8). Nature of the data set: ITC.
For data set [7], the target named is Pex5 mutant with a partial deletion of the 457-489 loop (Pex5 Δ470-480) (Trypanosoma cruzi) (UniProt Q4DPQ9). The experiment in a line: ITC.
The data set “cryo-EM structure” concerns the molecule itself. The experiment in a line: cryo-EM structure.

Pex14NTD(A48F) (domain or fragment) had a fold decrease in affinity against wild type Pex14NTD in data set [1] of 2 fold.

As usually defined, the Kd is the constant that tells how readily two partners part at equilibrium. A high value points to weaker binding. With “N-terminal domain of Pex14 (Pex14NTD; residues 21-85) of Trypanosoma cruzi (domain or fragment)”, the fold decrease in affinity against wild type Pex5 was determined as 1.5 fold in data set [2] and 3.5 fold in data set [3]. The molecule also had a dissociation constant Kd in data set [1] of 53 nM.

The molecule “truncated Pex5 containing a single Wxxx(F/Y) motif (residues 314-666; Pex5TPR) (from UniProt Q4DPQ9 316-668) (domain or fragment)” showed a fold increase in affinity against wild type MDH in data set [4] of 4 fold. This molecule also registered a fold decrease in affinity against wild type MDH in data set [5] of 2.5 fold. This molecule also returned a Kd in data set [6] of 435 nM.

On to “Pex5 P490R mutant (from UniProt Q4DPQ9 316-668) (domain or fragment)”, for which, in data set [6], the fold decrease in affinity against wild type Pex5 was over 3 fold.

B1: short peptide encompassing PTS1 of MDH (residues 319-ARSKL-323) (peptide)
peptide: H-ARSKL-OH
As to B1, the fold decrease in affinity against wild type Pex5 in data set [7] turned out to be 3 fold.

B2: glycosomal malate dehydrogenase (MDH, residues 1-323) of Trypanosoma cruzi (enzyme, UniProt Q4DRD8 1-323, looked up)
chain: MVNVAVIGAAGGIGQSLSLLLLRELPFGSTLSLYDVVGAPGVAADLSHIDRAGITVKHAAGKLPPVPRDPALTELAEGVDVFVIVAGVPRKPGMTRDDLFNVNAGIVMDLVLTCASVSPNACFCIVTNPVNSTTPIAAQTLRKIGVYNKNKLLGVSLLDGLRATRFINNARHPLVVPYVPVVGGHSDVTIVPLYSQIPGPLPDESTLKEIRKRVQVAGTEVVKAKAGRGSATLSMAEAGARFTMHVVKALMGLDTPMVYAYVDTDGEHECPFLAMPVVLGKNGIERRLPIGPITTVEKEMLEEAVGVVKKNIAKGETFARSKL
As usually defined, the stoichiometry N is a count of units in the complex or per binding partner. As for B2, the “stoichiometry N” value in “cryo-EM structure” is 4.
